What was measured:
purified protein = substrate: N[C@@H](CO)C(=O)O; test: purified protein; settings: ADP co-substrate, MgCl2, 50 mM Tris-HCl pH 7.5, 85 °C (standard assay; 20 mM each ADP and MgCl2)
[1] = substrate: Nc1ncnc2c1ncn2[C@@H]1O[C@H](COP(=O)(O)OP(=O)(O)O)[C@@H](O)[C@H]1O; test: HPLC of AMP formed from ADP; format: biochemical, Thermococcus kodakarensis; settings: L-serine co-substrate (50 mM in standard assay), MgCl2, 50 mM Tris-HCl pH 7.5, 85 °C

B1: TK0378 protein; ADP-dependent Ser kinase (SerK; Tk-SerK) (Thermococcus kodakarensis KOD1) (protein)
chain: MGVEKVPKYDIPTKKVDYVFIELDKMKPHEQLVQKELEAFIESVTGSGIFWKPMLLAKVPGEDMYLIVDGHHRWAGLQKLGAKRAPSVILDYFSDDVKVYTWYPAFKGDLNEVVERLKKEGLEVIEDPEAEEKAERGEIAFALVGEKSFAIPGGLEEQKKVSKVLDEMSVEGKIELIYYGLKEDAREDMAKGEIDYVFIRKAPTKEEVMELVKRGEVYSPKTTRHVLPFNPDKIDVKLEELF
notes: full coding region in pET21a(+) (NdeI/EcoRI), no tag mentioned; E. coli BL21-CodonPlus(DE3)-RIL; heat treatment, Resource Q, Superdex 200
Protein B1 has a Km (purified protein) of 5.1 ± 0.5 mM, a kcat (purified protein) of 218 ± 5 s⁻¹ and a Km [1] of 2.4 ± 0.5 mM. For the same protein, the kcat [1] was 204 ± 12 s⁻¹.

— PMC5120207, “An archaeal ADP-dependent serine kinase involved in cysteine biosynthesis and serine metabolism” (Nature Communications, 2016)
